Tests used:
[1] = molecular target: T1, Recombinant human TSG-6 (R&D Biosystems, catalog #2104-TS) (human, UniProt P98066 18-277); experiment: inhibition of HA binding to TSG-6; HA binding
[2] = molecular target: T1, Recombinant human TSG-6 (R&D …); experiment: inhibition of HC-HA transesterase activity; HC-HA transesterase

T1 sequence (P98066 18-277): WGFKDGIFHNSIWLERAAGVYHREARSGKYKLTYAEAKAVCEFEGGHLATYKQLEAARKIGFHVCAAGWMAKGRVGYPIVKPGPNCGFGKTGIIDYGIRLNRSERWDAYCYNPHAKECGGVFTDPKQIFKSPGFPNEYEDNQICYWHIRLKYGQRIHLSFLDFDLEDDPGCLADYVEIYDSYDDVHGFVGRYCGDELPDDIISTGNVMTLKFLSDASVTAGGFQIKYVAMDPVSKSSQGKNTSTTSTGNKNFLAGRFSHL

| IC50 [1] [nM] | IC50 [2] [nM] | Binder |
| --- | --- | --- |
| > 667 | 68 | 5B4 (antibody, V domains shown) VH: QVQLQQPGAELVKPGASVKLSCKASDYTFTNYWMHWVKQRPGRGLEWIGRIDPSSGGAKYNEKFKSKATLTVDKPSSTAYMEFSSLTSEDSAVYYCVRSRYDYDGWFAYWGLGTLVTVSA VL: DIVMTQAAPSVPVTPGESVSISCRSSKSLLHSNGNTYLYWFLQRPGQSPQLLIYRMSNLASGVPDRFSGSGSGTAFTLRISRVEAEDVGVYYCMQHLEYPFTFGGGTKLEIKR |
| > 667 | 140 | 4E4 (antibody, V domains shown) VH: QVQLQQPGAELVKPGASVKLSCKASGYTFTSYWMHWVKQRPGQGLEWIGMIHPNSGSTNYNEKFKNKATLTVDKSSSTAYMQLSSLTSEDSAVYYCAPRMFDDYDDYWGQGTTLTVSS VL: QIVLTQSPAIMSASLGERVTMTCTASSSVSSSYLHWYQQKPGSSPKLWIYSTSNLASGVPVRFSGSGSGTSYSLTISRMEAEDAATYYCHHYHRSPYTFGGGTKLEIKR |
| > 667 | 44 | 4F1 (antibody, V domains shown) VH: EVKLVESGGGLVQPGGSLSLSCAASGFTFTDYYMSWVRQPPGKALEWLGFIRHKAKGYTAEYSASVKGRFTISRDNSQSILYLQMNALRAEDSATYYCARLYYYGSPHWYFDVWGTGTTVTVSS VL: QIVLTQSPAIMSASPGEKVTMTCSASSSVSYMHWYQQKSGTSPKRWIYDTSKLASGVPARFSGSGSGTSYSLTISSMEAEDAATYYCQQWSSNPPTFGSGTELEIKR |
| ~1400 | 4 | 5D9 (antibody, V domains shown) VH: QVQLQQSGAELARPGASVKLSCKASDDTFINYGINWVKQRTGQGLEWIGETFPSNGNTFYNEKFKGKATLTADRSSSTTYMELRSLTSEDAAVYFCARHSNLPYFDHWGQGSTLTVSS VL: DIVMTQSPSSLSVSAGEKVTMSCKSSQSLLNSGNQKNYLAWYQQKPGQPPKLLIYGASTRESGVPERFTGSGSGTDFTLTISSVQAEDLAVYYCQNDHSYPFTFGGGTNLEIKR |
| 290 | > 3000 | 3E4 (antibody, V domains shown) VH: QVQLQQPGAELVKPGASVKLSCKASGYTFTSQWMHWVKQRPGQGLEWIGMIHPNSGSTNNNEKFKSKATLTVDKSSSTAYMQLSSLTSEDSAVYYCTRWAMDYWGQGTSVTASS VL: DVVMTQTPLSLPVSLGDLASISCRSSQSLVHSNGNTYLHWYLQKPGQSPKLLIFKVSNRFSGVPDRFSGSGSGTDFTLKISRVEAEDLGVYFCSQSTHVPWTFGGGTKLEIKR |
| > 667 | 8 | 5A5 (antibody, V domains shown) VH: QVQLQQSGAELAKPGASVRLSCQASGYTFTTYWMHWVKQRPRQGLEWIGYIIPSSGYSKCHQKFKDKATLTADKSSNTASMQLSSLTYEDSAVYYCARSTSGYPYYFDYWGQGTTLTVSS VL: ENVLTQSPAIMSASPGEKVTMTCSATSSVSYMHWYQQKSSTSPKLWIYDTSKLASGVPGRFSGSGSGNSYSLTISSMEAEDVATYYCFQGSWYPLTFGAGTKLELKR |
| > 2000 | 19 | anti-TSG-6 antibody of SEQ ID NO: 1 and SEQ ID NO: 2 (first entry of Table 1, clone name not printed) (antibody, V domains shown) VH: QVRLQQSGAELAKPGASVKLSCKASGYTFTSYWMHWVKQRPGQGLEWIGYIIPSSGYTKNKQNFKDKATLTADKSSSTAYMQLSNLTYEDSAVYSCARSDGSYPYYFDYWGQGTTLTVSS VL: ENVLTQSPAIMSASPGEKVTMTCSASSSVSYMHWYQQKSSTSPKLWIYDTSKLASGVPGRFSGSGSGNSYSLTISSMEAEDVATYYCFQGSGYPLTFGSGTKLEIKR |
| > 667 | 10 | 3E1 (antibody, V domains shown) VH: QVQLQQSGAELAKPGASVRLSCQASGYTFTSYWMHWVKQRPRQGLEWIGYIIPSSGYTKCHQKFKDKATLTADKSSSTAYMQLSSLTYEDSAVYYCARSTSGYPYYFDSWGQGTTLTVSS VL: ENVLTQSPAIMSASPGERVTMTCSATSSVSFMHWYQQKSSTSPKLWIYDTSKLASGVPGRFSGSGSGNSYSLTISSMEAEDVATYYCFQGSWYPLTFGAGTKLELKR |
| 32 | 375 | 1A9 (antibody, V domains shown) VH: EVQLQQSGPELVKPGASVKISCKASGYTFTDYYMNWVKQSHEKSLEWIGDINPNNGGTSYNQKFMGKATLTVDKSSRTAYMELRSLTSEDSTVYYCARWGIYDRFTYWGQGTLVSVSA VL: DIKMTQSPSSMYASLGERVTIACKASQDINSFLSWFQQKPGKSPKTLIYRANRLVDGVPSRFSGSGSGQDYSLTISSLEYEDMGIYYCLQYDEFPLTFGAGTKLELKR |
| 47 | 1100 | 1D7 (antibody, V domains shown) VH: EVQLQQSGPELVKPGASVKISCKASGYTFTDYYMNWVKQSHGKSLEWIGDINPNNGGTTYNQKFKGKATLTVDKSSSTAYMELRSLTSEDSAVYYCARWGIFDRFTYWGQGTVVTVSA VL: DIKMTQSPSSMYASRGERVTITCKASQDINSFLSWFQQKPGKSPKTLIYRANRLVDGVPSRFSGSGSGQDYSLTISSLEYEDMGIYYCLQYDEFPLTFGAGTKLELKR |
| > 667 | 36 | ID12 (antibody, V domains shown) VH: QVQLQQSGPELVKPGASVKLSCKTSGYTFTSYDINWVKQRPGQGLEWIGWIYPSDGSTKFNEKFKGMATLTVDTSSSTAYMELHSLTSEDSTVYFCARGLWYYGGGVDYWGQGTSVTVSS VL: DAVMTQTPLSLPVSLGDQASISCRSTQSLEDSNGNTYLNWYLQKPGQSPQLLIYRVSNRFSGVLDRFSGSGSGTDFTLKISRVEAEDLGVYFCLQVTHVPYTFGGGTKLEIKR |
| 10 | 12 | 3C6 (antibody, V domains shown) VH: EVQLQQSGPELVKPGASVKIPCKASGYTFTDYNMDWVKQSHGESLEWIGDIYPNNGGTIYNQKFKDKATLTVDKSSSTAYMELRSLTSEDNAVYYCARKTGTGFDYWGQGTTLTVSS VL: QIVLSQSPAILSASPGEKVTMTCRARSSVIYMHWYQQKPGSSPKPWIYATFNLASGVPARFSGSGSGTSYSLTISRVEAEDAATYYCQQWSSNPPTFGSGTKLEIKR |
